Experiments:
[1] = tested on: M5/N9 cells expressing myrCasp8-ER(T2); assay: Ligand dose response, MTT assay, in cells expressing myrCasp8-ER(T2); type: cell-based, murine; conditions: 48 hours, data not shown
Description: (b) Transient cotransfection of a β-galactosidase reporter with a Cre-ER(T2), myrCasp8-ER(T2), or Casp9-ER(T2) expression plasmid into murine M5/N9 (black columns), human HeLa (grey columns) or zebrafish Pac2 (open columns) cells. 12 h following transfection, cells were cultured for 36 h with 4-OH-tamoxifen at 10^−8 M and the activity of β-galactosidase in cell lysates was determined. Values obtained from transfections of the Cre-ER(T2) vector were defined as reference.
To quantify 4-OH-tamoxifen-inducible cell death, we applied the colorimetric MTT assay (Mossman, J. Immunol. Methods, 65, 55 (1983)) allowing the quantification of cell survival. Cells (4·10^3) were plated on 96-well plates. The assay was carried out in three replicas for each sample treated with and without 4-OH-tamoxifen. After 12 h, medium was replaced either with fresh medium or with medium supplemented with 10^−8 M 4-OH-tamoxifen. […] The crystals were dissolved in 150 μl 0.04 N HCl/isopropanol to give a homogeneous blue solution suitable for absorbance measurement at a wavelength of 570 nm on the Synergy™ HT Multi-Detection Microplate Reader (BioTek).
Cell viability was determined following 48 hours of incubation with the respective ligand at concentrations ranging from 10^−6 M to 10^−12 M by using the MTT assay. […]

MEF5/N9 cells [2] = assay: Transient cotransfection of ER(T2) fusion expression vectors with β-galactosidase reporter; β-galactosidase activity in lysates; type: cell-based, mouse; conditions: 10^−8 M 4-OH-tamoxifen, 48 h; for relative β-galactosidase activity in presence of 4-OH-tamoxifen compared to the negative control: relative to Cre-ER(T2) without 4-OH-tamoxifen
Description: The transformed mouse embryonic fibroblast cell line MEF5/N9 (Schwenk et al., Nucleic Acids Research, 26(6) 1427-1432 (1998)) was obtained from Michel Aguet (University of Zurich, Switzerland). The cells were grown in DMEM medium (Life Technologies) supplemented with 2 mM […] and 10% fetal calf serum at 37° C., 5% CO2 in humid atmosphere and passaged upon trypsinization. One day before transient transfection 4·10^4 cells were plated into a 24-well plate (Falcon). For the transient transfection of MEF5/N9 cells with plasmids, each well received into 500 μl of medium a total amount of 150 ng or 200 ng supercoiled plasmid DNA complexed before with the FuGene6 transfection reagent (Roche Diagnostics GmbH, Mannheim, Germany) according to the manufacturer's protocol. Each 150 ng or 200 ng DNA preparation (FIG. 2 sample 1 to 11) contained 100 ng of the β-Galactosidase expression vector pCMV-β-gal-pA (pCMVβ, Clontech, FIG. 1G, SEQ ID NO: 56), and 100 ng of the fusion ER(T2) expression vectors to be tested (FIG. 2 sample 3-7, 10-11) and the control plasmids (FIG. 2 sample 1-3), except for the samples with the plasmids pCAG-Casp9full-ER(T2)-bpA (FIG. 2 sample 8) and pCAG-Casp9trunc-ER(T2)-bpA (FIG. 2 sample 9), respectively, that received 50 ng of the test vector. For each sample to be tested four individual wells were transfected. Five hours after the addition of the DNA preparations each well received additional 500 μl of growth medium. The following day, the medium of two wells of each sample was replaced by fresh medium. The other two wells received medium containing 10^−8 M 4-hydroxy-tamoxifen (Sigma). 48 hours after induction with 4-OH-tamoxifen, the cells of each well were lysed with 200 μl lysate reagent supplemented with protease inhibitors (Roche Diagnostics GmbH). The lysates were centrifuged and 50 μl were used to determine the β-galactosidase activities using the β-galactosidase reporter gene assay (Roche Diagnostics GmbH) according to the manufacturer's protocol in a microplate luminometer (Berthold Detection Systems GmbH). The mean value and standard deviation of the samples was calculated from the β-galactosidase RLU values obtained from the two transfected wells of each sample. The relative β-galactosidase activity was obtained by comparison to the negative control (pCAG-Cre-ER(T2)-bpA) without 4-OH-tamoxifen.
To investigate the cell death effect of the different ER(T2) fusion constructs quantitatively, we performed transient cotransfections of the ER(T2) fusion protein expression vectors together with a fixed amount of a reporter plasmid coding for β-galactosidase in MEF5/N9 fibroblast cells. Transfected cells were treated 12 hours after transfection with 4-OH-tamoxifen at a concentration of 10^−8 M. Following 48 hours of 4-OH-tamoxifen induction, the cells from the various samples were lysed and the activity of β-galactosidase in the lysates was determined by a chemiluminescence assay and expressed in “Relative Light Units” (RLU) (FIG. 2). As positive controls for 4-OH-tamoxifen-inducible cell death, we prepared samples transfected with the constructs pCAG-HAFas-ER(T2) or pCAG-MFas-ER(T2) together with the reporter plasmid and treatment with 4-OH-tamoxifen. As negative control for this assay served samples which received the reporter plasmid together with the expression vector pCAG-Cre-ER(T2) and that were treated with 4-OH-tamoxifen.
To determine the relative activity of the tested ER(T2) fusion constructs inducing apoptosis in the presence of 4-OH-tamoxifen, the RLU values of β-galactosidase activity were divided individually for each sample by the RLU value obtained from the sample which received the plasmid pCAG-Cre-ER(T2) but was not treated with 4-OH-tamoxifen (defined as negative control). The relative activity of the tested Caspase- or bax-ER(T2) fusion proteins was then compared to the negative control for 4-OH-tamoxifen-dependent cell death defined as an activity of 1.

MEF5/N9 cells [3] = assay: Visible phenotypic changes / viability of stably transfected MEF5/N9 clones on 4-OH-tamoxifen treatment; type: cell-based, mouse; conditions: 10^−8 M 4-OH-tamoxifen, 24 h
Description: (§1) To generate stably transfected MEF5/N9 cells, 2·10^6 cells were coelectroporated with 32 μg ER(T2) fusion plasmid DNA linearised with ScaI and 8 μg pPgk-hygro-pA plasmid DNA linearised with XhoI and plated into two 96-well plates. The cells were grown in DMEM medium (Invitrogen) supplemented with 2 mM Glutamine and 10% fetal calf serum at 37° C., 5% CO2 in humid atmosphere, and passaged upon trypsinization. Two days after transfection the medium was supplemented with 250 U/ml of hygromycin (Calbiochem) for the selection of stable integrants. Upon the growth of resistant colonies these were individually expanded in the presence of hygromycin.
To examine 4-OH-tamoxifen-dependent cell death, 1·10^5 MEF5/N9 cells expressing ER(T2) fusion proteins were plated into each well of a six-well plate. The following day, for each sample the medium in two of four individual wells were replaced with medium supplemented with 10^−8 M 4-hydroxy-tamoxifen. 24 hours after induction with 4-OH-tamoxifen, cells were photographed through a Leica DMI6000B fluorescence microscope with phase contrast either at 10-fold or 20-fold magnification.
Since the responsiveness of the clones, transfected with the same construct, to 4-OH-tamoxifen differed only slightly from each other, only the results obtained from one clone for each construct are shown in the figure.

MEF5/N9 cells [4] = assay: MTT cytotoxicity assay of stably transfected MEF5/N9 clones; type: cell-based, mouse; conditions: 10^−8 M 4-OH-tamoxifen, 48 h
Description: as §1
To quantify 4-OH-tamoxifen-inducible cell death, we applied the colorimetric MTT assay (Mossman, J. Immunol. Methods, 65, 55 (1983)) allowing the quantification of cell survival. Cells (4·10^3) were plated on 96-well plates. The assay was carried out in three replicas for each sample treated with and without 4-OH-tamoxifen. After 12 h, medium was replaced either with fresh medium or with medium supplemented with 10^−8 M 4-OH-tamoxifen. Following 48 h of 4-OH-tamoxifen treatment, sterile filtered MTT reagent in PBS (Sigma) was added at the concentration of 0.5 mg/ml. Incubation occurred for 4 hours at 37° C. With ongoing reaction time, dark violet MTT formazan crystals appeared on the bottom of the wells containing living cells. The crystals were dissolved in 150 μl 0.04 N HCl/isopropanol to give a homogeneous blue solution suitable for absorbance measurement at a wavelength of 570 nm on the Synergy™ HT Multi-Detection Microplate Reader (BioTek).

MEF5/N9 cells [5] = assay: Transient cotransfection of ER(T2) fusion expression vectors with β-galactosidase reporter; β-galactosidase activity in lysates; type: cell-based, mouse; conditions: no 4-OH-tamoxifen; transient transfection 50 or 100 ng vector; relative to Cre-ER(T2) without 4-OH-tamoxifen

With `C[C@]12CC[C@@H]3c4ccc(O)cc4CC[C@H]3[C@@H]1CC[C@@H]2O` [E2, 17-β-estradiol] the “ligand concentration required to induce cell death” value [1] was ≥ 10^−7 M.

B1: Casp3-ER(T2): full length murine Caspase-3 fused to ER(T2) ligand binding domain, SEQ ID NO: 37 (protein)
chain: MENNKTSVDSKSINNFEVKTIHGSKSVDSGIYLDSSYKMDYPEMGICIIINNKNFHKSTGMSSRSGTDVDAANLRETFMGLKYQVRNKNDLTREDILELMDSVSKEDHSKRSSFVCVILSHGDEGVIYGTNGPVELKKLTSFFRGDYCRSLTGKPKLFIIQACRGTELDCGIETDSGTDEEMACQKIPVEADFLYAYSTAPGYYSWRNSKDGSWFIQSLCSMLKLYAHKLEFMHILTRVNRKVATEFESFSLDSTFHAKKQIPCIVSMLTKELYFYHLEPSAGDMRAANLWPSPLMIKRSKKNSLALSLTADQMVSALLDAEPPILYSEYDPTRPFSEASMMGLLTNLADRELVHMINWAKRVPGFVDLTLHDQVHLLECAWLEILMIGLVWRSMEHPVKLLFAPNLLLDRNQGKCVEGMVEIFDMLLATSSRFRMMNLQGEEFVCLKSIILLNSGVYTFLSSTLKSLEEKDHIHRVLDKITDTLIHLMAKAGLTLQQQHQRLAQLLLILSHIRHMSNKGMEHLYSMKCKNVVPLYDLLLEAADAHRLHAPTSRGGASVEETDQSHLATAGSTSSHSLQKYYITGEAEGFPATA
modifications: fusion gene Casp3-ER(T2)
For B1, the “4-OH-tamoxifen-dependent activity / toxicity in transient transfection (in words)” value (MEF5/N9 cells [2]) was “low compared to the Caspase 8 or Caspase 9 ER(T2) fusion variants”, the “relative β-galactosidase activity in presence of 4-OH-tamoxifen compared to the negative control” value (MEF5/N9 cells [2]) was 28% and the “4-OH-tamoxifen-dependent cell death, phenotype of stable clones” value (from here on “4-OH-tamoxifen-dependent cell death”) (MEF5/N9 cells [3]) was “neither the two Fas-ER(T2) variants (see FIG. 4 H2, I2) nor Casp3-ER(T2) (FIG. 4 E2) were able to induce apoptosis in the presence of 4-OH-tamoxifen”. For the same molecule, the “4-OH-tamoxifen-dependent cell death” value (MEF5/N9 cells [3]; listed as Casp3ER) was “not affected by the treatment with 4-OH-tamoxifen”, the “cell viability in the presence of 4-OH-tamoxifen (MTT)” value (shortened to “cell viability in the presence”) (MEF5/N9 cells [4]) was “not affected by treatment with 4-OH-tamoxifen” and the “basal toxicity: relative β-galactosidase activity compared to the negative control in absence of 4-OH-tamoxifen” value (MEF5/N9 cells [5]) was 52%.

B2: MFas-ER(T2): membrane-targeting signal peptide, transmembrane and intracellular domain of murine Fas fused to ER(T2); planned positive control (protein)
chain: MLWIWAVLPLVLAGSQLRVHTTSNTNCRKQSPRNRLWLLTILVLLIPLVFIYRKYRKRKCWKRRQDDPESRTSSRETIPMNASNLSLSKYIPRIAEDMTIQEAKKFARENNIKEGKIDEIMHDSIQDTAEQKVQLLLCWYQSHGKSDAYQDLIKGLKKAECRRTLDKFQDMVQKDLGKSTPDTGNENEGQCLVEPSAGDMRAANLWPSPLMIKRSKKNSLALSLTADQMVSALLDAEPPILYSEYDPTRPFSEASMMGLLTNLADRELVHMINWAKRVPGFVDLTLHDQVHLLECAWLEILMIGLVWRSMEHPVKLLFAPNLLLDRNQGKCVEGMVEIFDMLLATSSRFRMMNLQGEEFVCLKSIILLNSGVYTFLSSTLKSLEEKDHIHRVLDKITDTLIHLMAKAGLTLQQQHQRLAQLLLILSHIRHMSNKGMEHLYSMKCKNVVPLYDLLLEAADAHRLHAPTSRGGASVEETDQSHLATAGSTSSHSLQKYYITGEAEGFPATA
modifications: fusion protein MFas-ER(T2)
notes: membrane-targeting signal peptide, transmembrane and intracellular domain of murine Fas fused to ER(T2); planned positive control
With B2 the “relative β-galactosidase activity in presence of 4-OH-tamoxifen compared to the negative control” value (MEF5/N9 cells [2]) was 26%, the “4-OH-tamoxifen-dependent cell death” value (MEF5/N9 cells [3]) was “not affected by the treatment with 4-OH-tamoxifen” and the “cell viability in the presence” value (MEF5/N9 cells [4]) was “not affected by treatment with 4-OH-tamoxifen”. The “basal toxicity: relative β-galactosidase activity compared to the negative control in absence of 4-OH-tamoxifen” value (MEF5/N9 cells [5]) was 60%.

B3: HAFas-ER(T2): HA epitope, transmembrane and intracellular domain of murine Fas (135-305) fused to ER(T2); planned positive control (protein)
chain: MGYPYDVPDYATSNTNCRKQSPRNRLWLLTILVLLIPLVFIYRKYRKRKCWKRRQDDPESRTSSRETIPMNASNLSLSKYIPRIAEDMTIQEAKKFARENNIKEGKIDEIMHDSIQDTAEQKVQLLLCWYQSHGKSDAYQDLIKGLKKAECRRTLDKFQDMVQKDLGKSTPDTGNENEGQCLVEPSAGDMRAANLWPSPLMIKRSKKNSLALSLTADQMVSALLDAEPPILYSEYDPTRPFSEASMMGLLTNLADRELVHMINWAKRVPGFVDLTLHDQVHLLECAWLEILMIGLVWRSMEHPVKLLFAPNLLLDRNQGKCVEGMVEIFDMLLATSSRFRMMNLQGEEFVCLKSIILLNSGVYTFLSSTLKSLEEKDHIHRVLDKITDTLIHLMAKAGLTLQQQHQRLAQLLLILSHIRHMSNKGMEHLYSMKCKNVVPLYDLLLEAADAHRLHAPTSRGGASVEETDQSHLATAGSTSSHSLQKYYITGEAEGFPATA
modifications: fusion protein HAFas-ER(T2)
notes: planned positive control
With B3 the “relative β-galactosidase activity in presence of 4-OH-tamoxifen compared to the negative control” value (MEF5/N9 cells [2]) was 23%, the “4-OH-tamoxifen-dependent cell death” value (MEF5/N9 cells [3]) was “not affected by the treatment with 4-OH-tamoxifen” and the “cell viability in the presence” value (MEF5/N9 cells [4]) was “not affected by treatment with 4-OH-tamoxifen”. For the same molecule, the “basal toxicity: relative β-galactosidase activity compared to the negative control in absence of 4-OH-tamoxifen” value (MEF5/N9 cells [5]) was 52%.

Source: patent US8530168B2, “Fusion protein comprising a Caspase domain and a nuclear hormone receptor binding domain and methods and uses thereof” (Helmholtz Zentrum Munich Deutsches Forschungszentrum fuer …, priority 2007, dated 2013)
